This is an account of results in paper PMC9288427, “The CIP2A-TOPBP1 complex safeguards chromosomal stability during mitosis” (Nature Communications, 2022).

The experiment deals with T1, GST-tagged CIP2A Armadillo repeat domain (ArmRD, aa 1-559) (human, UniProt Q8TCG1 1-559).
T1 construct: CIP2A, human, aa 1-559 (bases 1 through 1677 of the full length cDNA) cloned into pGEX-4T3; the results give the ArmRD as amino acids 1-560; the methods give the construct as aa 1-559; also called GST-ArmRP of CIP2A; GST-tagged ArmRD
The experiment in a line: pull-down; 800 µg CHO protein extract with HA-TOPBP1 aa740-899 bound to anti-HA agarose beads (1 h, 4 °C), unbound fraction washed away, 5 µg purified GST-tagged ArmRD added for 90 min at 4 °C, washed 3 x 15 min with cold PBS; Western blot. The settings on record: both partners purified. (A western blot detects proteins with antibodies after separation by electrophoresis.)

B1: HA-tagged TOPBP1 aa740-899 fragment expressed in ExpiCHO-S cells (domain or fragment, human, UniProt Q92547 740-899, looked up)
chain: NSTKEERSLETEITNGINLNSDTAEHPGTRLQTHRKTVVTPLDMNRFQSKAFRAVVSQHARQVAASPAVGQPLQKEPSLHLDTPSKFLSKDKLFKPSFDVKDALAALETPGRPSQQKRKPSTPLSEVIVKNLQLALANSSRNAVALSASPQLKEAQSEKE
notes: Same construct as m1, other host; source: ExpiCHO-S, transfected; not shown: HA, N-terminal, kept
For the molecule B1, the binding result was “binds”.
